From patent EP4714976A1 (Sunshine Lake Pharma Co., Ltd., dated 2026)
Changes are numbered by the printed parent chain.

B1: 3H9-VH1-VL1 (antibody, human IgG1, kappa, V domains shown)
VH: QVQLVQSGAEVKKPGASVKVSCKASGYTFTFYNMHWVRQAPGQGLEWIGLIYPDNGDTSYNQKFKGRATLTADTSTSTVYMELSSLRSEDTAVYYCARGGLDYWGQGTTVTVSS
VL: DIQMTQSPSSLSASVGDRVTITCRASENIYSNLAWYQQKPGKSPKLLIYAATNLADGVPSRFSGSGSGTDYTLTISSLQPEDFATYYCQHFWGTPYTFGGGTKVEIKR
notes: humanized IgG1
B2: 3H9-VH0-VL0 (antibody, human IgG1, kappa, V domains shown)
VH: B1 VH with I48M
VL: B1 VL with S43A, Y71F
notes: humanized IgG1
B3: 3H9-VH2-VL0 (antibody, human IgG1, kappa, V domains shown)
VH: B1 VH with T30S
VL: B1 VL with S43A, Y71F
notes: humanized IgG1
B4: 3H9-VH0-VL2 (antibody, human IgG1, kappa)
heavy: not shown
light: DIQMTQSPSSLSASVGDRVTITCRASENIYSNLAWYQQKPGKSPKLLVYAATNLADGVPSRFSGSGSGTDYTLTISSLQPEDFATYYCQHFWGTPYTFGGGTKVEIKRTVAAPSVFIFPPSDEQLKSGTASVVCLLNNFYPREAKVQWKVDNALQSGNSQESVTEQDSKDSTYSLSSTLTLSKADYEKHKVYACEVTHQGLSSPVTKSFNRGEC
notes: humanized IgG1
B5: 3H9-VH3-VL3 (antibody, human IgG1, kappa)
heavy: not shown
light: B4 light with V104L
notes: humanized IgG1
B6: 3H9-VH3-VL0 (antibody, human IgG1, kappa, V domains shown)
VH: B1 VH with T30S, R38K
VL: B1 VL with S43A, Y71F
notes: humanized IgG1
B7: 3H9-VH1-VL2 (antibody, human IgG1, kappa)
heavy: not shown
light: B4 light
notes: humanized IgG1
B8: 3H9-VH3-VL1 (antibody, human IgG1, kappa, V domains shown)
VH: B1 VH with T30S, R38K
VL: B1 VL
notes: humanized IgG1
B9: 3H9-VH3-VL2 (antibody, human IgG1, kappa)
heavy: not shown
light: B4 light
notes: humanized IgG1
B10: 3H9-VH1-VL0 (antibody, human IgG1, kappa, V domains shown)
VH: B1 VH
VL: B1 VL with S43A, Y71F
notes: humanized IgG1
B11: 3H9-VH2-VL3 (antibody, human IgG1, kappa)
heavy: not shown
light: B4 light with V104L
notes: humanized IgG1
B12: 3H9-VH2-VL2 (antibody, human IgG1, kappa)
heavy: not shown
light: B4 light
notes: humanized IgG1
B13: 3H9-VH0-VL3 (antibody, human IgG1, kappa)
heavy: not shown
light: B4 light with V104L
notes: humanized IgG1
B14: 3H9-VH0-VL1 (antibody, human IgG1, kappa, V domains shown)
VH: B1 VH with I48M
VL: B1 VL
notes: humanized IgG1
B15: 3H9-VH2-VL1 (antibody, human IgG1, kappa, V domains shown)
VH: B1 VH with T30S
VL: B1 VL
notes: humanized IgG1
B16: 3H9-VH1-VL3 (antibody, human IgG1, kappa)
heavy: not shown
light: B4 light with V104L
notes: humanized IgG1
B17: FR21 (antibody, human IgG1, kappa, V domains shown)
VH: QVQLVQSGAEVKKPGSSVKVSCKASGYIFTTYNVHWVRQAPGQGLEWIGSIYPDNGDTSYNQNFKGRATITADKSTSTAYMELSSLRSEDTAVYYCARGDFAYWGQGTLVTVSS
VL: DIQMTQSPSSLSASVGDRVTITCKASQGVSNDVAWYQQKPGKAPKLLIYSASYRYTGVPSRFSGSGSGTDFTFTISSLQPEDIATYYCQQHSTTPYTFGQGTKLEIKR
notes: also called positive control antibody FR21; positive monoclonal antibody FR21
B18: 3C7-VH2-VL2 (antibody, human IgG1, kappa, V domains shown)
VH: QVQLVQSGAEVKKPGASVKVSCKASGYIFRNYYIHWVRQAPGQGLEWMGAIYPDNGDTSYNQRFKVRATLTADTSTSTVYMELSSLRSEDTAVYYCARAFTYWGQGTTVTVSS
VL: DIQMTQSPSSLSASVGDRVTITCGASENIYGALNWYQRKPGKAPKLLIYGATNLADGVPSRFSGSGSGTDYTLTISSLQPEDFATYYCQNVLSTPYTFGGGTKLEIKR
notes: humanized IgG1
B19: 3C7-VH1-VL2 (antibody, human IgG1, kappa, V domains shown)
VH: B18 VH with R30T
VL: B18 VL
notes: humanized IgG1
B20: 3C7-VH1-VL3 (antibody, human IgG1, kappa, V domains shown)
VH: B18 VH with R30T
VL: B18 VL with A43S, F83V
notes: humanized IgG1
B21: 3C7-VH0-VL2 (antibody, human IgG1, kappa, V domains shown)
VH: B18 VH with I28T, R30T
VL: B18 VL
notes: humanized IgG1
B22: 3C7-VH0-VL0 (antibody, human IgG1, kappa, V domains shown)
VH: B18 VH with I28T, R30T
VL: B18 VL with G24R, R38Q, Y71F, L104V
notes: humanized IgG1
B23: 3C7-VH1-VL1 (antibody, human IgG1, kappa, V domains shown)
VH: B18 VH with R30T
VL: B18 VL with R38Q, F83V, L104V
notes: humanized IgG1
B24: 3C7-VH0-VL1 (antibody, human IgG1, kappa, V domains shown)
VH: B18 VH with I28T, R30T
VL: B18 VL with R38Q, F83V, L104V
notes: humanized IgG1
B25: 3C7-VH1-VL0 (antibody, human IgG1, kappa, V domains shown)
VH: B18 VH with R30T
VL: B18 VL with G24R, R38Q, Y71F, L104V
notes: humanized IgG1
B26: 3C7-VH2-VL0 (antibody, human IgG1, kappa, V domains shown)
VH: B18 VH
VL: B18 VL with G24R, R38Q, Y71F, L104V
notes: humanized IgG1
B27: 3C7-VH0-VL3 (antibody, human IgG1, kappa, V domains shown)
VH: B18 VH with I28T, R30T
VL: B18 VL with A43S, F83V
notes: humanized IgG1

Target: T1, human FGFR2b (Kaixia Biotechnology, catalog number FGR-HM1BB) (human, UniProt P21802-3 22-378)
T1 construct: extracellular domain; bought; also called hFGFR2b; human FGFR2b protein
Assay: BLI, antibody on AHC2 sensor

T1 sequence (P21802 other isoform, or with tags, fused parts or gaps): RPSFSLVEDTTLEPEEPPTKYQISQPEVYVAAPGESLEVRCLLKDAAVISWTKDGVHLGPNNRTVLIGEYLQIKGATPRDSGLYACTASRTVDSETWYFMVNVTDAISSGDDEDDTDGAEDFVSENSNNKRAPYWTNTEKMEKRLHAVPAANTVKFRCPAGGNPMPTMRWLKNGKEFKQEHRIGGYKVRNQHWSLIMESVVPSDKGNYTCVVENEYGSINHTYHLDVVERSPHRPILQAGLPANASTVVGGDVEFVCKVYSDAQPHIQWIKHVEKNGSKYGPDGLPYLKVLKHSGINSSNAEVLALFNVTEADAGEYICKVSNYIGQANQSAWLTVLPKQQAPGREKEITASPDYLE

Kd [nM] | koff [s⁻¹] | kon [M⁻¹ s⁻¹] | Binder
8.5 | 0.00241 | 284000 | B1
6.51 | 0.00301 | 463000 | B2
2.64 | 0.00125 | 473000 | B3
5.06 | 0.00186 | 367000 | B4
0.743 | 0.000399 | 536000 | B5
3.13 | 0.000935 | 299000 | B6
5.37 | 0.00232 | 432000 | B7
0.614 | 0.000324 | 527000 | B8
0.709 | 0.000373 | 526000 | B9
18.5 | 0.00433 | 234000 | B10
1.37 | 0.000788 | 575000 | B11
1.9 | 0.000784 | 412000 | B12
5.09 | 0.00186 | 366000 | B13
3.55 | 0.00179 | 505000 | B14
1.32 | 0.000752 | 570000 | B15
5.05 | 0.00254 | 503000 | B16
1.52 | 0.000424 | 279000 | B17
2.03 | 0.000884 | 435000 | B18
2.71 | 0.00115 | 425000 | B19
3.04 | 0.00122 | 403000 | B20
11.6 | 0.00313 | 269000 | B21
10.4 | 0.00305 | 293000 | B22
3.24 | 0.00131 | 405000 | B23
14 | 0.00315 | 224000 | B24
1.89 | 0.000955 | 504000 | B25
1.63 | 0.000829 | 509000 | B26
13.6 | 0.00323 | 238000 | B27

Target: T2, FGFR2b on KATO III cells (human, UniProt P21802-3 22-822)
T2 construct: whole, on cells; also called KATO III cells that overexpress FGFR2b
Assay: flow cytometry, KATO III cells

T2 sequence (P21802 other isoform, or with tags, fused parts or gaps): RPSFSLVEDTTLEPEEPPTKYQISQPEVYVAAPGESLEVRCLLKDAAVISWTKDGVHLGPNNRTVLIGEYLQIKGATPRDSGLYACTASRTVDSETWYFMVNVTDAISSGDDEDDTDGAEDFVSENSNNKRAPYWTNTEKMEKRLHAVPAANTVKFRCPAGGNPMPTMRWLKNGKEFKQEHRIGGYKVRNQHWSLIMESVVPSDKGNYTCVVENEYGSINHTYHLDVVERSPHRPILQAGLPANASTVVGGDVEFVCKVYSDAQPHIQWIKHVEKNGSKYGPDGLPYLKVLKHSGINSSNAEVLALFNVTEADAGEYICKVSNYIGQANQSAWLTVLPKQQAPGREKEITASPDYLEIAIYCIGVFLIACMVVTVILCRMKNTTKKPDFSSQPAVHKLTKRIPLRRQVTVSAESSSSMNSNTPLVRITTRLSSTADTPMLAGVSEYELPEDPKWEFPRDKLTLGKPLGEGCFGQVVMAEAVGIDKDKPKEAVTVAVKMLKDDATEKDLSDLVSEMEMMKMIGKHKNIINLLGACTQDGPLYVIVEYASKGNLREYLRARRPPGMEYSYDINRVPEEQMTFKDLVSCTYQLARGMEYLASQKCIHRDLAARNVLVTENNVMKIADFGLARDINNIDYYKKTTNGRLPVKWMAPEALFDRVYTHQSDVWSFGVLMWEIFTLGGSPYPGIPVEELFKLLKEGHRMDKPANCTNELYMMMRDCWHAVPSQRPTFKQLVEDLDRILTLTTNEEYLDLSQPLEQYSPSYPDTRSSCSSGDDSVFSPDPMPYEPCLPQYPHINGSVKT

EC50 [µg/mL] | Binder
0.379 | B1
0.336 | B2
0.332 | B3
0.357 | B4
0.554 | B5
0.437 | B6
0.0909 | B7
0.357 | B8
0.231 | B9
0.378 | B10
0.212 | B11
0.337 | B12
0.469 | B13
0.18 | B14
0.309 | B15
0.215 | B16
0.586 | B17
0.559 | B18
0.601 | B19
0.565 | B20
0.528 | B21
0.384 | B22
0.506 | B23
0.64 | B24
0.396 | B25
0.436 | B26
0.443 | B27
